# Test: soluble on expression in E. coli; label from the status in PepcDB or PDB records
row,Sequence,soluble on expression in E. coli
1,MAASAAATAAASAATAASAASGSPGSGEGSAGGEKRPAASSAAAASAAASSPAGGGGEAQELLEHCGVCRERLRPERDPRLLPCLHSACSACLGPATPAAANNSGDGGSAGDGAMVDCPVCKQQCYSKDIVENYFMRDSGSKASSDSQDANQCCTSCEDNAPATSYCVECSEPLCETCVEAHQRVKYTKDHTVRSTGPAKTRDGERTVYCNVHKHEPLVLFCESCDTLTCRDCQLNAHKDHQYQFLEDAVRNQRKLLASLVKRLGDKHATLQKNTKEVRSSIRQVSDVQKRVQVDVKMAILQIMKELNKRGRVLVNDAQKVTEGQQERLERQHWTMTKIQKHQEHILRFASWALESDNNTALLLSKKLIYFQLHRALKMIVDPVEPHGEMKFQWDLNAWTKSAEAFGKIVAERPGTNSTGPGPMAPPRAPGPLSKQGSGSSQPMEVQEGYGFGSDDPYSSAEPHVSGMKRSRSGEGEVSGLLRKVPRVSLERLDLDLTSDSQPPVFKVFPGSTTEDYNLIVIERGAAAAAAGQAGTVPPGAPGAPPLPGMAIVKEEETEAAIGAPPAAPEGPETKPVLMPLTEGPGAEGPRLASPSGSTSSGLEVVAPEVTSAPVSGPGILDDSATICRVCQKPGDLVMCNQCEFCFHLDCHLPALQDVPGEEWSCSLCHVLPDLKEEDGSLSLDGADSTGVVAKLSPANQRKCERVLLALFCHEPCRPLHQLATDSTFSMEQPGGTLDLTLIRARLQEKLSPPYSSPQEFAQDVGRMFKQFNKLTEDKADVQSIIGLQRFFETRMNDAFGDTKFSAVLVEPPPLNLPSAGLSSQELSGPGDGP,soluble
2,MSLSDELAKLVVEVTSPDGNIKAKLVAGEQLTVAFRPGTYARYDERGLEHQLSRLAMLAWTGYRRGFFEAKGRAEDISAKDAEKEHLNHWDANTRRYNEEMAQIVARGKSSGNVIRAQAKGLAFWKVEIRDGTLASMDEATFCAECVSVLAAVQRDSKNQEILLKDFYFGLNIPKSWRKKNPLRIERGVMD,not soluble
3,MEKHEEENGLCKAESVDGSLDVWSCQNSDSSSADHLVVMVHGILGSTDDWKFGAEQFVKKMPDKVFVHCSEKNVSALTLDGVDVMGERLAAEVLDIIQRKPNICKISFVAHSLGGLAARYAIGKLYKPANQEDVKDSVADSSQETPKGTICGLEAMNFITVATPHLGSMGNKQVPFLFGFSSIEKVAGLIIHWIFKRTGRHLFLKDEEEGKPPLLRRMVEDTDDCHFISALRAFKRRVAYSNVGHDHVVGWKTASIRRDSELPKWEDSLNEKYPHIVYEELCKACDMEDIPEGENHSDDIEEEMIKGLSSVSWEKVDVSFHSSRQRFAAHSVIQVKNEDMHIEGADVIEHIIDHFHA,soluble
4,MGSDKIHHHHHHLPKLREDFKMQNKSVFILGASGETGKVLLKEILGQNLFSKVTLIGRRKLTFEEEAYKNVNQEVVDFEKLDVYASAFQGHDVGFCCLGTTRSKAGAEGFVRVDRDYVLKSAELAKAGGCKHFNLLSSRGADKSSSFLYLQVKGEVEAKVEELKFDRLSVFRPGVLLCDRQESRPGEWLARKFFGSLPDSWASGYAVPVVTVVRAMLNNLVSPSSGQMELLENKAILHLGKDRDVPKL,soluble
5,MQFHIDDMTCGGCASTVKKTILTLDANATVRTDPATRLVDVETSLSAEQIAAALQKAGFPPRER,not soluble
6,GASIRWEWRAARFADYLLQTRLKSRNNGLRVVYSITINLVPNHLDKRAHKYLGMVRQASRKYGVDESLILAIMQTESSFNPYAVSHADAMGLMQVVQHSAGRDVFRSQGKSGLPSRSYLFDPANNIDTGTAYLAMLNNVYLAGIDNPTSRRYAVITAYNGGAGSVLRVFSSDKVQAANIINSMAPGDVYQTLTTRHPSAESRRYLYKVNTAQKSYRRK,not soluble
7,AHHHHHHGSIEVRFHGRGGQGAVTAANILAEAAFLEGKYVQAFPFFGVERRGAPVTAFTRIDNKPIRIKTQIYEPDVVVVLDPSLLDAVDVTAGLKDEGIVIVNTEKSKEEVLEKLKKKPKKLAIVDATTIALEILGLPITNTAILGAVAKATGLVKIESIEEAIKDTFSGELGEKNARAAREAYEKTEVFEL,soluble
8,MEDFNRRAEELDQVEKNVSLGLKKIQDEMDSIQLEVEPDDVEITSTKRGFWEHDITNLSPFPVVCRVRATSPSMFVVNKNVFLLKPMDFFKLMISRKPGQIRSHHLKIDVTQFVDTFNPINLLDYFIASNPFKTFVVRYHGAPRYWSDALEMNSWLTGEQLNEQWEKEMKKTSQEKKSSLETSEVSSVNEFVDAEEDNFPVQRAAMNITNVLTVASQVPDESNKNEPDSDIDSVVSGTIDSELANLKI,not soluble

# Reference: the DeepSol protein solubility set
